In US7001748B2, “Methods of making polyketides using hybrid polyketide synthases” (The Board of Trustees of the Leland Stanford Junior …, priority 1999, dated 2006):

Biological target: T1, (5)M2+TE (Saccharopolyspora erythraea, UniProt Q03131+Q03133)
T1 construct: a single module of the DEBS PKS fused to the thioesterase (TE) termination region of module 6; made in house; host or cells: E. coli BL21(DE3); ACP4(4) from pNW8 (pET28a), phosphopantetheinylated in vitro with Sfp
Assay: Labeling of holo-ACP4(4) with 14C-2a mediated by (5)M2+TE (back-transfer)
Assay type: biochemical
Conditions: presence and absence of (5)M2+TE
Experimental: Labeling of Holo-ACP4(4) with ^14C-2a Mediated by (5)M2+TE. Holo-ACP4(4) (20 μM) was incubated with 1 mM [1-^14C]-labeled 2a (custom synthesized by Amersham Pharmacia, specific activity 55 mCi/mmol) and 1 μM (5)M2+TE in reaction buffer C for 10 min at 30° C. The protein was precipitated with 75% acetone/H2O for 5 min at −80° C. After washing the pellet with 6.25% (w/v) TCA to remove excess salts followed by 500 μL of 75% acetone/H2O to remove residual, unbound 14 C-2a, the precipitated protein was resuspended in 8 μL of buffer A and 4 μL of SDS sample buffer, and resolved on a 4-20% SDS-PAGE gradient gel (Bio-Rad). The proteins were visualized with Coomassie blue stain and dried, and the radioactivity was detected either on a Packard InstantImager or by exposing the gel to X-ray film.

B1: holo-ACP4(4): DEBS ACP4 catalytic domain with its natural C-terminal linker, phosphopantetheinylated (protein)
chain: HHHHHHNVVDRLAGRSESDQVAGLAELVRSHAAAVSGYGSADQLPERKAFKDLGFDSLAAVELRNRLGTATGVRLPSTLVFDHPTPLAVAEHLRDRLFAASPAVDIGDRLDELEKALEALSAEDGHDDVGQRLESLLRRWNSRRADAPSTSAISEDASDDELFSMLDQRFGGGEDL
modifications: non-natural residues
notes: DEBS ACP4 catalytic domain with its natural C-terminal linker, phosphopantetheinylated
With B1 the “radiolabeling of ACP by 14C-2a” value was “radiolabeled only in the reaction containing (5)-M2+TE”.
